Source: publication PMC6752053 (Cell, 2019)

Target: the molecule itself
Assay: X-ray diffraction of polymer pellets

B1: His6-Pbp1_LC (C-terminal low-complexity region of Pbp1, a.a.570-722) (domain or fragment, S. cerevisiae, UniProt P53297 570-722, looked up)
chain: NSMGNAVPGMNPAMGMNMGGMMGFPMGGPSASPNPMMNGFAAGSMGMYMPFQPQPMFYHPSMPQMMPVMGSNGAEEGGGNISPHVPAGFMAAGPGAPMGAFGYPGGIPFQGMMGSGPSGMPANGSAMHSHGHSRNYHQTSHHGHHNSSTSGHK
binding result: binds
